What is called stoichiometry N is the number of molecules, sites or subunits per partner or assembly.

Numbering of substitutions follows the chain as printed. Numbers in names are those of the source.

This data set concerns the molecule itself. The data set is described as follows: SEC; Superdex 200 10/300 GL on AKTA-FPLC, 50 mM phosphate buffer pH 8.0, 100 mM NaCl, 0.5 mL/min, 25 °C; mass read against standard markers (ferritin, catalase, aldolase, ovalbumin). For orientation: In gel filtration, larger molecules generally elute earlier.

B1: Mycobacterium tuberculosis isocitrate lyase (MtbICL) (enzyme)
chain: MSVVGTPKSAEQIQQEWDTNPRWKDVTRTYSAEDVVALQGSVVEEHTLARRGAEVLWEQLHDLEWVNALGALTGNMAVQQVRAGLKAIYLSGWQVAGDANLSGHTYPDQSLYPANSVPQVVRRINNALQRADQIAKIEGDTSVENWLAPIVADGEAGFGGALNVYELQKALIAAGVAGSHWEDQLASEKKCGHLGGKVLIPTQQHIRTLTSARLAADVADVPTVVIARTDAEAATLITSDVDERDQPFITGERTREGFYRTKNGIEPCIARAKAYAPFADLIWMETGTPDLEAARQFSEAVKAEYPDQMLAYNCSPSFNWKKHLDDATIAKFQKELAAMGFKFQFITLAGFHALNYSMFDLAYGYAQNQMSAYVELQEREFAAEERGYTATKHQREVGAGYFDRIATTVDPNSSTTALTGSTEEGQFH
notes: Isocitrate lyase of Mycobacterium tuberculosis, full-length, 428 amino acids per monomer; also called native MtbICL; native protein
B1: the “stoichiometry N” value was determined as 4.

B2: MtbICL F345A mutant (MtbICL_(F345A)) (enzyme)
chain: B1 chain with F345A
notes: A small fraction formed aggregate on SEC; also called mutant protein
In the case of B2, the “stoichiometry N” value stood at 4.
